In article PMC12668182 (2025):

Target: N-His-ZB-CSB-Avi-Biotin (WT), full length (human, UniProt Q03468 1-1493, biotin on the C-terminal Avi tag)
Test: SPR

N-His-ZB-CSB-Avi-Biotin (WT), full length, sequence (Q03468 whole entry): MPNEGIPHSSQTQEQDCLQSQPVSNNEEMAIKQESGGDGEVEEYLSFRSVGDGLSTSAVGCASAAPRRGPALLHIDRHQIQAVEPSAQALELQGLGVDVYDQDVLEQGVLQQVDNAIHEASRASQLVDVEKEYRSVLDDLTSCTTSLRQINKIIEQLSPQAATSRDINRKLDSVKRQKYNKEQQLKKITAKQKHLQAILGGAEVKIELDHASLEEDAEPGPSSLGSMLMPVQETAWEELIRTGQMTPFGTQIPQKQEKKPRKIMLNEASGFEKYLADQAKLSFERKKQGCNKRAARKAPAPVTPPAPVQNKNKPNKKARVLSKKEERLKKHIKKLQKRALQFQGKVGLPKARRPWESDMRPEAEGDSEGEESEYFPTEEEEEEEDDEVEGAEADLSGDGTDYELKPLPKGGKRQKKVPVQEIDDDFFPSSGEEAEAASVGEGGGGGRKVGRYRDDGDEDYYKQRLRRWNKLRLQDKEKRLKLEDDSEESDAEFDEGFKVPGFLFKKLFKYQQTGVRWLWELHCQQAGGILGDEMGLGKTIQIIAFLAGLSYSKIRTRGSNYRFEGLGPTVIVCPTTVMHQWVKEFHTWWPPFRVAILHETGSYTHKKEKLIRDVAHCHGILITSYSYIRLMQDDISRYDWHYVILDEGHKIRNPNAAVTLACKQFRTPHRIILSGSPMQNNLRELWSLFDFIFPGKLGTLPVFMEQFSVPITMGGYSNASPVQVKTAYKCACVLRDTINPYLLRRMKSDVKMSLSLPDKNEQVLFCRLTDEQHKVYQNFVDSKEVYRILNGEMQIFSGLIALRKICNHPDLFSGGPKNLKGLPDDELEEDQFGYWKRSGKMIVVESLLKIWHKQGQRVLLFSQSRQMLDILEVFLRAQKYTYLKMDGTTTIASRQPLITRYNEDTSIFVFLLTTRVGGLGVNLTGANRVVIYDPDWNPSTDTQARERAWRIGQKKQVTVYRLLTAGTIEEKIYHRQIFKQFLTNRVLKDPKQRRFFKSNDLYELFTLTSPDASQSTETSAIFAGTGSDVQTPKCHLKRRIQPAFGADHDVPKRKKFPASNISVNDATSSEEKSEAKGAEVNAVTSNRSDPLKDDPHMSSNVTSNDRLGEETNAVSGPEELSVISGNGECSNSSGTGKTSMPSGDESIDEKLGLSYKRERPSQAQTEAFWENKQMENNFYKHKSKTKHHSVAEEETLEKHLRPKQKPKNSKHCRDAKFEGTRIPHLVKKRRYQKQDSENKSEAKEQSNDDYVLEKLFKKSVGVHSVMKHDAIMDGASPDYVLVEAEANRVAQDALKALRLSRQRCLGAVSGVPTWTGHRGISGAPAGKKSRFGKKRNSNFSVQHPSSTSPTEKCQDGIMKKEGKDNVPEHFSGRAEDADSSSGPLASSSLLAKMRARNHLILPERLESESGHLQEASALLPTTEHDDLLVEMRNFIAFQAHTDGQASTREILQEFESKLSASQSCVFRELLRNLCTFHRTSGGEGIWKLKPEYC

Kd: 140 nM
B1: SNM1A (WT, a.a. 698-1040, untagged) (domain or fragment)
chain: KKTCPFYKKIPGTGFTVDAFQYGVVEGCTAYFLTHFHSDHYAGLSKHFTFPVYCSEITGNLLKNKLHVQEQYIHPLPLDTECIVNGVKVVLLDANHCPGAVMILFYLPNGTVILHTGDFRADPSMERSLLADQKVHMLYLDTTYCSPEYTFPSQQEVIRFAINTAFEAVTLNPHALVVCGTYSIGKEKVFLAIADVLGSKVGMSQEKYKTLQCLNIPEINSLITTDMCSSLVHLLPMMQINFKGLQSHLKKCGGKYNQILAFRPTGWTHSNKFTRIADVIPQTKGNISIYGIPYSEHSSYLEMKRFVQWLKPQKIIPTVNVGTWKSRSTMEKYFREWKLEAGY
